Test [1] has as its system Human HAN larynx cell line BICR18. As to the kind of experiment: In vivo tumour growth, HAN CDX model (larynx cell line BICR18). To be noted: BICR18 s.c. in SCID mice; HzR022 (D-A10) 10 mg/kg i.p. BIW × 3; cisplatin 2.5 mg/kg i.p. QW × 3. How it is done:
Human HAN larynx cell line BICR18 was subcutaneously injected in SCID mice, with a concentration of 1.10^6 cells per injection (200 μL). Mice were randomized when the tumours reached a mean volume of about 100 mm^3 for the 9 groups (total 45 mice). […] The endpoint was defined by animal ethics as a tumour diameter of >18 mm, significant weight loss or alteration of animal well-being. In order to assess the effectiveness of the compounds on tumourigenesis, tumour volume was measured two times a week. The size of the primary tumours were measured using calipers and the tumour volume (TV) was extrapolated to a sphere using the formula TV= 4/3π×r^3, by calculating the mean radius from the two measurements. The median and standard deviation were also calculated for each group. Median is preferred to mean in order to exclude the extreme values. MAb treatment was administered by intraperitoneal injection twice a week during three weeks at 10 or 1 mg/kg doses. The cisplatin (Myland) treatment was administered by intraperitoneal injection once per week during three weeks at 1, 2.5 or 5 mg/kg doses. The product was prepared in accordance with the sponsor's guidelines, i.e. diluted in PBS. Mice were sacrificed when the tumours reached a maximum volume of 1600 mm^3. […] The t-test (two-tailed test) was performed on the tumour volume values (mm^3) measured on the day of sacrifice.

The target of test [2] is T1, CK8 (Homo sapiens, UniProt P05787).
T1 sequence (P05787 1-483): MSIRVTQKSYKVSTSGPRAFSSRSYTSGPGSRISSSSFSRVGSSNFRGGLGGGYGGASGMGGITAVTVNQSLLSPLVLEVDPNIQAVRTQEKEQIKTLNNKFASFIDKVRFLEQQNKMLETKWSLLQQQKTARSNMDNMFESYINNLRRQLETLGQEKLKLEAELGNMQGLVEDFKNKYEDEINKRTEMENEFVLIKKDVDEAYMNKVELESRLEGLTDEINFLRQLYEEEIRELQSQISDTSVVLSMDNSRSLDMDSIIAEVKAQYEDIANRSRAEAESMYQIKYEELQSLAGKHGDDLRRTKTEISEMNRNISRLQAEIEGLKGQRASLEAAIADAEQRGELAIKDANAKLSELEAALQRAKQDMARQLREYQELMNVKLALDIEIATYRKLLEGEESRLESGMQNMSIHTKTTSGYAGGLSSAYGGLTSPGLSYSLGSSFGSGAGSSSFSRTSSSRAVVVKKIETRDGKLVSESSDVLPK
As to the kind of experiment: Antibody internalisation assay by flow cytometry. Format: cell-based. More on the design: methods to investigate on CK8 cellular expression at the cell surface analysed by flow cytometry; endogenous in cells. To be noted: 4° C. versus 37° C., 24 hours; 0.78 or 0.39 μg/mL; HCT116, U87MG, BICR56, BxPC3, DU145 cell lines (FIG. 4-6). Here is the method: This example describes methods to investigate on HzR022 (D-A10) internalisation following CK8 detection at the cell surface analysed by flow cytometry.
Flow cytometry experiments for MAb internalisation. Briefly, 2.10^5 cells per 96 wells are incubated at 4° C. versus 37° C. during 24 hours with a dilution of unconjugated murine anti CK8 MAb at 50 μg/mL then diluted at ½. The MAb anti CK8 tested were D-A10 (IgG2b), D-F5 (IgG2a) or D-D6 (IgG1), from iDD biotech MAb panel. The isotype matched MAbs used were B-Z1 (IgG1), B-Z2 (IgG2a) or B-E4 (IgG2b) (Diaclone, Besancon, France). Unbound antibodies were washed away with PBS (Life technologies, St Aubin, France) supplemented by 1% Bovine Serum Albumin (Sigma, St Quentin Fallavier, France). Subsequently, cells are centrifuged (5 min at 400 g) and bound antibody is detected with Fluorescein Isothiocyanate (FITC) conjugated goat (Fab′)2 polyclonal anti mouse Ig (MP Biomedical, Illkirch, France) at 4° C. for 30 min. Detection reagent is washed away and cells are centrifuged (5 min at 400 g) and suspended in 300 μL PBS. Bound detection antibody is quantified on a FACSCAN (BD Biosciences, Rungis, France), (FL1 channel, 3 000 events per acquisition). During the experiment, the respective isotype controls are included to exclude any unspecific binding events
Results of experiments are shown in FIG. 4 for D-A10 MAb (at 0.78 or 0.39 μg/mL), in FIG. 5 for D-D6 (at 0.78 or 0.39 μg/mL), in FIG. 6 for D-F5 (at 0.78 or 0.39 μg/mL). One example was shown for CRC from HCT116 cell line, GBM from U87MG cell line, HAN from BIRC56 cell line, PC from BxPC3 or PRC from DU145.

Positions count from the first letter of the chain named.

Results on four molecules are retold here after patent publication US20230062308A1, “TREATMENT OF CK8 POSITIVE CANCERS IN RELATION WITH K-RAS GENE STATUS” (INTERNATIONAL - DRUG - DEVELOPMENT - BIOTECH, priority 2017, published 2023).

Regarding `N.N.[Cl][Pt][Cl]` [cisplatin, reference compound], the “tumour growth control (tumour volume, FIG. 3)” value in test [1] is given as “rapid cisplatin escape”.

B1: D-F5: murine anti-CK8 monoclonal antibody (IgG2a); VL SEQ ID NO: 40, VH SEQ ID NO: 42 (antibody, V domains shown)
VH: QVQLKESGPGLVAPSQSLSITCTVSGFSLTSYGVHWVRQPPGKGLEWLGVIWAGGSTNYNSALMSRLRISKDNSKSQVFLKMNSLQTDDTAMYYCARIYGNYGRFAYWGQGTSVTVSS
VL: DVVMTQTPLSLPVSLGDQASISCRSSQSIVHSNGNTYLEWYLQKPGQSPKLLIYKVSNRLSGVPDRFSGSGSGTDFTLKISRVEAEDLGVYYCFQGSLVPLTFGGGTKLEIK
modifications: VH-mR022 (D-F5); VL-mR022 (D-F5)
Turning to B1, in test [2], the internalization potential result was “lower internalization potential”.

B2: D-D6: murine anti-CK8 monoclonal antibody (IgG1); VL SEQ ID NO: 36, VH SEQ ID NO: 38 (antibody, V domains shown)
VH: DVQLQESGPGLVKPSQSLSLTCTVTGYSITSDYAWNWIRQFPGNKLEWMGYISYSGRTSYNPSLKSRISITRDTSKNHFFLQLNSVTTEDTATYYCAPLTTGVGYAMDYWGQGTSVTVSS
VL: B1 VL with I29L, E39H, L51V, L60F, Y92F, F94S, G96S, S97T, L98H, L101F
modifications: VH-mR022 (D-D6); VL-mR022 (D-D6)
Consider B2, for which, in test [2], the internalization potential entry is on record as “highest internalization potential”.

B3: D-A10: murine anti-CK8 monoclonal antibody (IgG2b); VL SEQ ID NO: 2, VH SEQ ID NO: 4 (antibody, V domains shown)
VH: EVQLLETGGGLVQPGGSRGLSCEGSGFTFSGFWMSWVRQTPGKTLEWIGDINSDGSAIKYAPSIKDRFTIFRDNDKSTLYLQMSNVRSEDTATYFCIAHYSGGGFAYWGQGTSVTVSS
VL: NIVMTQAAPSVPVTPGESVSISCRSSKSLLYSNGNTYLYWFLQRPGQSPQRLIYYMSNLASGVPDRFSGRGSGTDFTLRISRVEAEDVGVYYCMQSLEYPFTFGGGTKLEIK
modifications: VH mD-A10; VLmD-A10
Regarding B3, the internalization potential result in test [2] is “highest internalization potential”.
